In publication PMC10868842, “Structural basis of the recognition of adeno-associated virus by the neurological system-related receptor carbonic anhydrase IV” (PLOS Pathogens, 2024):

Target: T1, AAV9P31 capsid (adeno-associated virus 9 variant with the 7-mer WPTSYDA inserted in VP3 VR-VIII) (adeno-associated virus 9, UniProt Q6JC40 1-736, WPTSYDA inserted between Q588 and A589)
T1 construct: Assembled icosahedral virus particle carrying a GFP genome; capsids made from a RepCap plasmid usually hold VP1, VP2 and VP3 (surmise); also called AAV9P31 particles; AAV9P31 virion; source: HEK293T, triple-plasmid transfection, purified (iodixanol gradient ultracentrifugation)
Experiment: cryo-EM structure; AAV9P31 on the grid, Car4 (W22-S277) added and incubated for 5 minutes; icosahedral reconstruction and block-based reconstruction of the 3-fold axis blocks
Settings: both partners purified

Binder | stoichiometry N
Mus musculus carbonic anhydrase IV (Car4), amino acids W22 to S277 (receptor, carbonic anhydrase IV (Car4), Mus musculus, residues 22-277 (W22 to S277); the functional rows use this molecule for Car4; also called wt Car4; truncated Car4 (22-277); not shown: GST, N-terminal, cleaved) WCYEIQTKDPRSSCLGPEKWPGACKENQQSPINIVTARTKVNPRLTPFILVGYDQKQQWPIKNNQHTVEMTLGGGACIIGGDLPARYEAVQLHLHWSNGNDNGSEHSIDGRHFAMEMHIVHKKLTSSKEDSKDKFAVLAFMIEVGDKVNKGFQPLVEALPSISKPHSTSTVRESSLQDMLPPSTKMYTYFRYNGSLTTPNCDETVIWTVYKQPIKIHKNQFLEFSKNLYYDEDQKLNMKDNVRPLQPLGKRQVFKS | ~3 Car4 per virion

Target: T1, AAV9P31 capsid (adeno-associated virus …)
Experiment: SPR; BIAcore 8K; AAV9P31 particles immobilised on a CM5 chip by amide coupling (sodium acetate pH 4.0); WT or mutated Car4 proteins flowed over at 30 ul/min, 25 °C, PBST; regeneration with 10 mM glycine pH 2.0
Settings: both partners purified

Binder | Kd
Mus musculus carbonic anhydrase IV (Car4), amino acids W22 to S277 (receptor, carbonic anhydrase IV (Car4), Mus musculus, residues 22-277 (W22 to S277); the functional rows use this molecule for Car4; also called wt Car4; truncated Car4 (22-277); not shown: GST, N-terminal, cleaved) WCYEIQTKDPRSSCLGPEKWPGACKENQQSPINIVTARTKVNPRLTPFILVGYDQKQQWPIKNNQHTVEMTLGGGACIIGGDLPARYEAVQLHLHWSNGNDNGSEHSIDGRHFAMEMHIVHKKLTSSKEDSKDKFAVLAFMIEVGDKVNKGFQPLVEALPSISKPHSTSTVRESSLQDMLPPSTKMYTYFRYNGSLTTPNCDETVIWTVYKQPIKIHKNQFLEFSKNLYYDEDQKLNMKDNVRPLQPLGKRQVFKS | 106 nM
Car4 (22-277) T92A (receptor, Mus musculus, UniProt Q64444 22-277, looked up, carbonic anhydrase IV (Car4), Mus musculus, residues 22-277; also called T92A_(Car4); source: E. coli BL21 (DE3), purified as the wild type; not shown: GST, N-terminal, cleaved) WCYEIQTKDPRSSCLGPEKWPGACKENQQSPINIVTARTKVNPRLTPFILVGYDQKQQWPIKNNQHTVEMALGGGACIIGGDLPARYEAVQLHLHWSNGNDNGSEHSIDGRHFAMEMHIVHKKLTSSKEDSKDKFAVLAFMIEVGDKVNKGFQPLVEALPSISKPHSTSTVRESSLQDMLPPSTKMYTYFRYNGSLTTPNCDETVIWTVYKQPIKIHKNQFLEFSKNLYYDEDQKLNMKDNVRPLQPLGKRQVFKS | 379 nM
Car4 (22-277) H187E (mouse residue changed to its hCar4 counterpart) (receptor, Mus musculus, UniProt Q64444 22-277, looked up, carbonic anhydrase IV (Car4), Mus musculus, residues 22-277; also called H187E_(Car4); source: E. coli BL21 (DE3), purified as the wild type; not shown: GST, N-terminal, cleaved) WCYEIQTKDPRSSCLGPEKWPGACKENQQSPINIVTARTKVNPRLTPFILVGYDQKQQWPIKNNQHTVEMTLGGGACIIGGDLPARYEAVQLHLHWSNGNDNGSEHSIDGRHFAMEMHIVHKKLTSSKEDSKDKFAVLAFMIEVGDKVNKGFQPLVEALPSISKPESTSTVRESSLQDMLPPSTKMYTYFRYNGSLTTPNCDETVIWTVYKQPIKIHKNQFLEFSKNLYYDEDQKLNMKDNVRPLQPLGKRQVFKS | 0.206 nM
Car4 (22-277) E90M (mouse residue changed to its hCar4 counterpart) (receptor, Mus musculus, UniProt Q64444 22-277, looked up, carbonic anhydrase IV (Car4), Mus musculus, residues 22-277; also called E90M_(Car4); source: E. coli BL21 (DE3), purified as the wild type; not shown: GST, N-terminal, cleaved) WCYEIQTKDPRSSCLGPEKWPGACKENQQSPINIVTARTKVNPRLTPFILVGYDQKQQWPIKNNQHTVMMTLGGGACIIGGDLPARYEAVQLHLHWSNGNDNGSEHSIDGRHFAMEMHIVHKKLTSSKEDSKDKFAVLAFMIEVGDKVNKGFQPLVEALPSISKPHSTSTVRESSLQDMLPPSTKMYTYFRYNGSLTTPNCDETVIWTVYKQPIKIHKNQFLEFSKNLYYDEDQKLNMKDNVRPLQPLGKRQVFKS | 32.3 nM
Car4 (22-277) V72S (mouse residue changed to its hCar4 counterpart) (receptor, Mus musculus, UniProt Q64444 22-277, looked up, carbonic anhydrase IV (Car4), Mus musculus, residues 22-277; also called V72S_(Car4); source: E. coli BL21 (DE3), purified as the wild type; not shown: GST, N-terminal, cleaved) WCYEIQTKDPRSSCLGPEKWPGACKENQQSPINIVTARTKVNPRLTPFILSGYDQKQQWPIKNNQHTVEMTLGGGACIIGGDLPARYEAVQLHLHWSNGNDNGSEHSIDGRHFAMEMHIVHKKLTSSKEDSKDKFAVLAFMIEVGDKVNKGFQPLVEALPSISKPHSTSTVRESSLQDMLPPSTKMYTYFRYNGSLTTPNCDETVIWTVYKQPIKIHKNQFLEFSKNLYYDEDQKLNMKDNVRPLQPLGKRQVFKS | 60.7 nM
Car4 (22-277) I70A (receptor, Mus musculus, UniProt Q64444 22-277, looked up, carbonic anhydrase IV (Car4), Mus musculus, residues 22-277; also called I70A_(Car4); source: E. coli BL21 (DE3), purified as the wild type; not shown: GST, N-terminal, cleaved) WCYEIQTKDPRSSCLGPEKWPGACKENQQSPINIVTARTKVNPRLTPFALVGYDQKQQWPIKNNQHTVEMTLGGGACIIGGDLPARYEAVQLHLHWSNGNDNGSEHSIDGRHFAMEMHIVHKKLTSSKEDSKDKFAVLAFMIEVGDKVNKGFQPLVEALPSISKPHSTSTVRESSLQDMLPPSTKMYTYFRYNGSLTTPNCDETVIWTVYKQPIKIHKNQFLEFSKNLYYDEDQKLNMKDNVRPLQPLGKRQVFKS | 743 nM
Car4 (22-277) Q79A (receptor, Mus musculus, UniProt Q64444 22-277, looked up, carbonic anhydrase IV (Car4), Mus musculus, residues 22-277; also called Q79A_(Car4); source: E. coli BL21 (DE3), purified as the wild type; not shown: GST, N-terminal, cleaved) WCYEIQTKDPRSSCLGPEKWPGACKENQQSPINIVTARTKVNPRLTPFILVGYDQKQAWPIKNNQHTVEMTLGGGACIIGGDLPARYEAVQLHLHWSNGNDNGSEHSIDGRHFAMEMHIVHKKLTSSKEDSKDKFAVLAFMIEVGDKVNKGFQPLVEALPSISKPHSTSTVRESSLQDMLPPSTKMYTYFRYNGSLTTPNCDETVIWTVYKQPIKIHKNQFLEFSKNLYYDEDQKLNMKDNVRPLQPLGKRQVFKS | 292 nM
